Patent publication US20220135684A1 (published 2022)
Read-outs that look alike come from different tables or passages of the source.

How the values were obtained:
cynomolgus PDL1 antigen [1] = target: T1, cynomolgus PDL1 antigen (cynomolgus, UniProt G7PSE7 19-238); test: SPR (Biacore); EXP2
human CD28 [2] = target: T2, human CD28 (human, UniProt P10747 19-152); test: -; scFv VHVL in 1+1 Fab-scFv-Fc bsAb
human CD28 [3] = target: T2, human CD28; test: BLI (Octet); average of HIS1K and SA capture
human PDL1 antigen [4] = target: T3, human PDL1 antigen (human, UniProt Q9NZQ7 19-238)
human PDL1 antigen [5] = target: T3, human PDL1 antigen; test: SPR (Biacore); EXP1
cynomolgus PDL1 antigen [6] = target: T1, cynomolgus PDL1 antigen; test: SPR (Biacore); EXP1
human CD28 [7] = target: T2, human CD28
human CD28 [8] = target: T2, human CD28; test: Octet; avid

B1: αPDL1×αCD28 bsAb with PDL1 binding domain 2G4_H1.12_L1.66 and CD28 binding domain 1A7_H1.14_L1.71 (bispecific antibody)
heavy: EVQLLESGGGLVQPGGSLRLSCAASGFTFSVYDMSWVRQAPGKRLEWVSTISSGGSFTHYPDSVKGRFTISRDNSKNTLYLQMNSLRAEDTAVYYCVRRSLDWYFDVWGAGTTVTVSSASTKGPSVFPLAPSSKSTSGGTAALGCLVKDYFPEPVTVSWNSGALTSGVHTFPAVLQSSGLYSLSSVVTVPSSSLGTQTYICNVNHKPSDTKVDKKVEPKSCDKTHTCPPCPAPPVAGPSVFLFPPKPKDTLMISRTPEVTCVVVDVKHEDPEVKFNWYVDGVEVHNAKTKPREEEYNSTYRVVSVLTVLHQDWLNGKEYKCKVSNKALPAPIEKTISKAKGQPREPQVYTLPPSREEMTKNQVSLTCDVSGFYPSDIAVEWESDGQPENNYKTTPPVLDSDGSFFLYSKLTVDKSRWEQGDVFSCSVMHEALHNHYTQKSLSLSPGK
scFv-Fc: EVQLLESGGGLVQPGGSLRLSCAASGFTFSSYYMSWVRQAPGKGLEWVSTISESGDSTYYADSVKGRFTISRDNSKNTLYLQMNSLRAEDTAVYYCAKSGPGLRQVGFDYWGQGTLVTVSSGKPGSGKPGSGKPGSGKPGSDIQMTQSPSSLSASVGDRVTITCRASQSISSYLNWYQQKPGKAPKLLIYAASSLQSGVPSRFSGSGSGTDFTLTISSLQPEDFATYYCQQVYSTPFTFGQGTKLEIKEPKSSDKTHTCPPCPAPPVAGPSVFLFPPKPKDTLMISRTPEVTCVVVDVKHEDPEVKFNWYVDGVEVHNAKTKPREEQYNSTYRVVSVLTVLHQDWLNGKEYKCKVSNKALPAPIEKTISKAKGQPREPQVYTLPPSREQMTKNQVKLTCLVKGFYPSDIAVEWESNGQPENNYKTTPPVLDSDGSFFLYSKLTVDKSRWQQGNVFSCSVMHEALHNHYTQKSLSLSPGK
light: EIVLTQSPGTLSLSPGERATLSCRVSSSIQSTNLHWYQQKPGQSPRPLIYGTSNLATGVPVRFSGSGSGTDYTLTISRLEPEDFAVYYCQQWSSYPLYTFGGGTKVEIKRTVAAPSVFIFPPSDEQLKSGTASVVCLLNNFYPREAKVQWKVDNALQSGNSQESVTEQDSKDSTYSLSSTLTLSKADYEKHKVYACEVTHQGLSSPVTKSFNRGEC
**Q.** With B1 as the binder, how does the Kd (cynomolgus PDL1 antigen [1]) read?
**A.** The Kd was 1.7 nM.

B2: XENP37560 (bispecific antibody)
heavy: EVQLLESGGGLVQPGGSLRLSCAASGFTFSSYDMSWVRQAPGKRLEWVSTISSGGSFTHYPDSVKGRFTISRDNSKNTLYLQMNSLRAEDTAVYYCVRRSGDWYFDVWGAGTTVTVSSASTKGPSVFPLAPSSKSTSGGTAALGCLVKDYFPEPVTVSWNSGALTSGVHTFPAVLQSSGLYSLSSVVTVPSSSLGTQTYICNVNHKPSDTKVDKKVEPKSCDKTHTCPPCPAPPVAGPSVFLFPPKPKDTLMISRTPEVTCVVVDVKHEDPEVKFNWYVDGVEVHNAKTKPREEEYNSTYRVVSVLTVLHQDWLNGKEYKCKVSNKALPAPIEKTISKAKGQPREPQVYTLPPSREEMTKNQVSLTCDVSGFYPSDIAVEWESDGQPENNYKTTPPVLDSDGSFFLYSKLTVDKSRWEQGDVFSCSVMHEALHNHYTQKSLSLSPGK
scFv-Fc: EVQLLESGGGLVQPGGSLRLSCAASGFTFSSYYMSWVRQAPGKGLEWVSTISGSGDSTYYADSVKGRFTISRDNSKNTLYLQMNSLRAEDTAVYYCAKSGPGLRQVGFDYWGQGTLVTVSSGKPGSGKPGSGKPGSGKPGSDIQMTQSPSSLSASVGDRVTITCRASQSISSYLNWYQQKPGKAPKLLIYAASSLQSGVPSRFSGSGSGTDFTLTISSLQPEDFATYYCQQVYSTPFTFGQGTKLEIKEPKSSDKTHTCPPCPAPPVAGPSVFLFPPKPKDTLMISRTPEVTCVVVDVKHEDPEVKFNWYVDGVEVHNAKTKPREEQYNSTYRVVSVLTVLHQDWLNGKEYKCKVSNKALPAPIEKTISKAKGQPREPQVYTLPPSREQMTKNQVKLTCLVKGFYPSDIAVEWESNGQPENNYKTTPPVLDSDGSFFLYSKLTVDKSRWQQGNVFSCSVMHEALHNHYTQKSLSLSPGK
light: EIVLTQSPGTLSLSPGERATLSCRVSSSISSSNLHWYQQKPGQSPRPLIYGTSNLASGVPVRFSGSGSGTDYTLTISRLEPEDFAVYYCQQWSSYPLYTFGGGTKVEIKRTVAAPSVFIFPPSDEQLKSGTASVVCLLNNFYPREAKVQWKVDNALQSGNSQESVTEQDSKDSTYSLSSTLTLSKADYEKHKVYACEVTHQGLSSPVTKSFNRGEC
**Q.** How did the Kd (human CD28 [2]) turn out when B2 was run?
**A.** Its Kd is 91.6 nM.

**Q.** And the Kd (human CD28 [3])?
**A.** The Kd was 91.6 nM.

B3: XENP37559 (bispecific antibody)
heavy: EVQLLESGGGLVQPGGSLRLSCAASGFTFSSYDMSWVRQAPGKRLEWVSTISSGGSFTHYPDSVKGRFTISRDNSKNTLYLQMNSLRAEDTAVYYCVRRSGDWYFDVWGAGTTVTVSSASTKGPSVFPLAPSSKSTSGGTAALGCLVKDYFPEPVTVSWNSGALTSGVHTFPAVLQSSGLYSLSSVVTVPSSSLGTQTYICNVNHKPSDTKVDKKVEPKSCDKTHTCPPCPAPPVAGPSVFLFPPKPKDTLMISRTPEVTCVVVDVKHEDPEVKFNWYVDGVEVHNAKTKPREEEYNSTYRVVSVLTVLHQDWLNGKEYKCKVSNKALPAPIEKTISKAKGQPREPQVYTLPPSREEMTKNQVSLTCDVSGFYPSDIAVEWESDGQPENNYKTTPPVLDSDGSFFLYSKLTVDKSRWEQGDVFSCSVMHEALHNHYTQKSLSLSPGK
scFv-Fc: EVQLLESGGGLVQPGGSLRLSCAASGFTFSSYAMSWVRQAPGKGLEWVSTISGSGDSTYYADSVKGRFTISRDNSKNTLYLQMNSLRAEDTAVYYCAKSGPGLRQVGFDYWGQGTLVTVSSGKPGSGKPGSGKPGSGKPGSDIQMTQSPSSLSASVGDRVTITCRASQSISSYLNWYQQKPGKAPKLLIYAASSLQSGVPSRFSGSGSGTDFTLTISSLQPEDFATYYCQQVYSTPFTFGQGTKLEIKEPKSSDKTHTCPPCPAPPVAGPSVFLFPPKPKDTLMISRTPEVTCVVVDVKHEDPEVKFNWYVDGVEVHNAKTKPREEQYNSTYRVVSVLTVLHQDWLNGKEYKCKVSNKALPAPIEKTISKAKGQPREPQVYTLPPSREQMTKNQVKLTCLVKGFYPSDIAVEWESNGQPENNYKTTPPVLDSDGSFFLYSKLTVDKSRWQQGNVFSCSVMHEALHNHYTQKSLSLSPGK
light: EIVLTQSPGTLSLSPGERATLSCRVSSSISSSNLHWYQQKPGQSPRPLIYGTSNLASGVPVRFSGSGSGTDYTLTISRLEPEDFAVYYCQQWSSYPLYTFGGGTKVEIKRTVAAPSVFIFPPSDEQLKSGTASVVCLLNNFYPREAKVQWKVDNALQSGNSQESVTEQDSKDSTYSLSSTLTLSKADYEKHKVYACEVTHQGLSSPVTKSFNRGEC
**Q.** With B3 as the binder, how does the Kd (human PDL1 antigen [4]) read?
**A.** The Kd was 2.6 nM.

**Q.** What about the Kd (human PDL1 antigen [5]) of the same binder?
**A.** Its Kd is 2.6 nM.

**Q.** And the Kd (cynomolgus PDL1 antigen [6])?
**A.** The Kd was 2.2 nM.

B4: XENP36233 (bispecific antibody)
heavy: EVQLLESGGGLVQPGGSLRLSCAASGFTFSSYDMSWVRQAPGKRLEWVSTISSGGSFTHYPDSVKGRFTISRDNSKNTLYLQMNSLRAEDTAVYYCVRRSGDWYFDVWGAGTTVTVSSASTKGPSVFPLAPSSKSTSGGTAALGCLVKDYFPEPVTVSWNSGALTSGVHTFPAVLQSSGLYSLSSVVTVPSSSLGTQTYICNVNHKPSDTKVDKKVEPKSCDKTHTCPPCPAPPVAGPSVFLFPPKPKDTLMISRTPEVTCVVVDVKHEDPEVKFNWYVDGVEVHNAKTKPREEEYNSTYRVVSVLTVLHQDWLNGKEYKCKVSNKALPAPIEKTISKAKGQPREPQVYTLPPSREEMTKNQVSLTCDVSGFYPSDIAVEWESDGQPENNYKTTPPVLDSDGSFFLYSKLTVDKSRWEQGDVFSCSVMHEALHNHYTQKSLSLSPGK
scFv-Fc: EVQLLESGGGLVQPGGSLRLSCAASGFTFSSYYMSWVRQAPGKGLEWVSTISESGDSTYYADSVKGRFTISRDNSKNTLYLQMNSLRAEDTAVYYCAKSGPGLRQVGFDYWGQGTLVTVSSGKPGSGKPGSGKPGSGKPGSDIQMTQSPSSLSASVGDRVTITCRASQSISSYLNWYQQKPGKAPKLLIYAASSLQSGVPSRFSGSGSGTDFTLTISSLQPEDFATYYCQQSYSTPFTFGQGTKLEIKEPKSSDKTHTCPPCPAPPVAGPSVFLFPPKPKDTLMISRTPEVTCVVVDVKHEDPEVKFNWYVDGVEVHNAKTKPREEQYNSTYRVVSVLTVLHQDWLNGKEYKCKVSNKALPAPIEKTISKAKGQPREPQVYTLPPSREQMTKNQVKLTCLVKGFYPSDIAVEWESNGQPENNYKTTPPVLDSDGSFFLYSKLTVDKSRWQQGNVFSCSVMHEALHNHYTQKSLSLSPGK
light: EIVLTQSPGTLSLSPGERATLSCRVSSSISSSNLHWYQQKPGQSPRPLIYGTSNLASGVPVRFSGSGSGTDYTLTISRLEPEDFAVYYCQQWSSYPLYTFGGGTKVEIKRTVAAPSVFIFPPSDEQLKSGTASVVCLLNNFYPREAKVQWKVDNALQSGNSQESVTEQDSKDSTYSLSSTLTLSKADYEKHKVYACEVTHQGLSSPVTKSFNRGEC
**Q.** How did the Kd (human CD28 [2]) turn out when B4 was run?
**A.** The Kd was 229 nM.

**Q.** What about the Kd (human CD28 [3]) of the same binder?
**A.** The Kd was 229 nM.

B5: αPDL1×αCD28 bsAb with PDL1 binding domain 2G4_H1.12_L1.68 and CD28 binding domain 1A7_H1.14_L1.71 (bispecific antibody)
heavy: EVQLLESGGGLVQPGGSLRLSCAASGFTFSVYDMSWVRQAPGKRLEWVSTISSGGSFTHYPDSVKGRFTISRDNSKNTLYLQMNSLRAEDTAVYYCVRRSLDWYFDVWGAGTTVTVSSASTKGPSVFPLAPSSKSTSGGTAALGCLVKDYFPEPVTVSWNSGALTSGVHTFPAVLQSSGLYSLSSVVTVPSSSLGTQTYICNVNHKPSDTKVDKKVEPKSCDKTHTCPPCPAPPVAGPSVFLFPPKPKDTLMISRTPEVTCVVVDVKHEDPEVKFNWYVDGVEVHNAKTKPREEEYNSTYRVVSVLTVLHQDWLNGKEYKCKVSNKALPAPIEKTISKAKGQPREPQVYTLPPSREEMTKNQVSLTCDVSGFYPSDIAVEWESDGQPENNYKTTPPVLDSDGSFFLYSKLTVDKSRWEQGDVFSCSVMHEALHNHYTQKSLSLSPGK
scFv-Fc: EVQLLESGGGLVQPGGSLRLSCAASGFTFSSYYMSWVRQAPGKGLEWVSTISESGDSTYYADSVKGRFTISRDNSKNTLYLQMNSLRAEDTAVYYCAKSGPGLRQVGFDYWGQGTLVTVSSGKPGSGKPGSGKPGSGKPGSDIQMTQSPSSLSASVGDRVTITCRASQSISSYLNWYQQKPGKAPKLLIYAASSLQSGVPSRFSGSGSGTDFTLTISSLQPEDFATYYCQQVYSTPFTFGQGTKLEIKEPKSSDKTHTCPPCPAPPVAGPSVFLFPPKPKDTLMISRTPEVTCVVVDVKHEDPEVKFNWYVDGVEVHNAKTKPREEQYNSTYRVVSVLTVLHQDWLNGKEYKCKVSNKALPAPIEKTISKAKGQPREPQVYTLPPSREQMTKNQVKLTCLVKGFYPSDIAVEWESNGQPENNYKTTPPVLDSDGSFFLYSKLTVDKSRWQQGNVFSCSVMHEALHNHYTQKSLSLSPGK
light: EIVLTQSPGTLSLSPGERATLSCRVSSSIQSTNLHWYQQKPGQSPRPLIYGTSNLASGVPVRFSGSGSGTDYTLTISRLEPEDFAVYYCQQWSSYPLYTFGGGTKVEIKRTVAAPSVFIFPPSDEQLKSGTASVVCLLNNFYPREAKVQWKVDNALQSGNSQESVTEQDSKDSTYSLSSTLTLSKADYEKHKVYACEVTHQGLSSPVTKSFNRGEC
**Q.** B5 was tested. Which Kd (cynomolgus PDL1 antigen [1]) did it give?
**A.** Its Kd is 1.5 nM.

B6: XENP38514 (bispecific antibody)
heavy: EVQLLESGGGLVQPGGSLRLSCAASGFTFSVYDMSWVRQAPGKRLEWVSTISSGGSFTHYPDSVKGRFTISRDNSKNTLYLQMNSLRAEDTAVYYCVRRSLDWYFDVWGAGTTVTVSSASTKGPSVFPLAPSSKSTSGGTAALGCLVKDYFPEPVTVSWNSGALTSGVHTFPAVLQSSGLYSLSSVVTVPSSSLGTQTYICNVNHKPSDTKVDKKVEPKSCDKTHTCPPCPAPPVAGPSVFLFPPKPKDTLMISRTPEVTCVVVDVKHEDPEVKFNWYVDGVEVHNAKTKPREEEYNSTYRVVSVLTVLHQDWLNGKEYKCKVSNKALPAPIEKTISKAKGQPREPQVYTLPPSREEMTKNQVSLTCDVSGFYPSDIAVEWESDGQPENNYKTTPPVLDSDGSFFLYSKLTVDKSRWEQGDVFSCSVMHEALHNHYTQKSLSLSPGK
scFv-Fc: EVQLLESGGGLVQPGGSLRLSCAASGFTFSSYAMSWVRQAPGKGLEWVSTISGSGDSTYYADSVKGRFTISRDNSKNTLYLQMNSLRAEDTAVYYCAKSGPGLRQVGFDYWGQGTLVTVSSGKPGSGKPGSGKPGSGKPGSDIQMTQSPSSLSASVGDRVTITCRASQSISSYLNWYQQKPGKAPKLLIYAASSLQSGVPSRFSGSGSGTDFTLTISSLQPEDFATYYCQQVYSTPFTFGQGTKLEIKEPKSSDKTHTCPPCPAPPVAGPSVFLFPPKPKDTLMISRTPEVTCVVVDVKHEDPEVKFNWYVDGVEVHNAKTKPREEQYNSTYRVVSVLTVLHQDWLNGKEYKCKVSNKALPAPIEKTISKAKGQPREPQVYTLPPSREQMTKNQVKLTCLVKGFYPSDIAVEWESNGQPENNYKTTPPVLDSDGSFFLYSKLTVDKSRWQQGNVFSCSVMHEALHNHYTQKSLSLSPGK
light: EIVLTQSPGTLSLSPGERATLSCRVSSSIQSTNLHWYQQKPGQSPRPLIYGTSVLATGVPVRFSGSGSGTDYTLTISRLEPEDFAVYYCQQWSSYPLYTFGGGTKVEIKRTVAAPSVFIFPPSDEQLKSGTASVVCLLNNFYPREAKVQWKVDNALQSGNSQESVTEQDSKDSTYSLSSTLTLSKADYEKHKVYACEVTHQGLSSPVTKSFNRGEC
**Q.** Which Kd (human CD28 [7]) does the source give for B6 here?
**A.** The Kd was 180 nM.

**Q.** And the Kd (cynomolgus PDL1 antigen [6])?
**A.** Its Kd is 0.38 nM.

B7: αPDL1×αCD28 bsAb with PDL1 binding domain 2G4_H1.12_L1.14 and CD28 binding domain 1A7_H1.14_L1.71 (bispecific antibody)
heavy: EVQLLESGGGLVQPGGSLRLSCAASGFTFSVYDMSWVRQAPGKRLEWVSTISSGGSFTHYPDSVKGRFTISRDNSKNTLYLQMNSLRAEDTAVYYCVRRSLDWYFDVWGAGTTVTVSSASTKGPSVFPLAPSSKSTSGGTAALGCLVKDYFPEPVTVSWNSGALTSGVHTFPAVLQSSGLYSLSSVVTVPSSSLGTQTYICNVNHKPSDTKVDKKVEPKSCDKTHTCPPCPAPPVAGPSVFLFPPKPKDTLMISRTPEVTCVVVDVKHEDPEVKFNWYVDGVEVHNAKTKPREEEYNSTYRVVSVLTVLHQDWLNGKEYKCKVSNKALPAPIEKTISKAKGQPREPQVYTLPPSREEMTKNQVSLTCDVSGFYPSDIAVEWESDGQPENNYKTTPPVLDSDGSFFLYSKLTVDKSRWEQGDVFSCSVMHEALHNHYTQKSLSLSPGK
scFv-Fc: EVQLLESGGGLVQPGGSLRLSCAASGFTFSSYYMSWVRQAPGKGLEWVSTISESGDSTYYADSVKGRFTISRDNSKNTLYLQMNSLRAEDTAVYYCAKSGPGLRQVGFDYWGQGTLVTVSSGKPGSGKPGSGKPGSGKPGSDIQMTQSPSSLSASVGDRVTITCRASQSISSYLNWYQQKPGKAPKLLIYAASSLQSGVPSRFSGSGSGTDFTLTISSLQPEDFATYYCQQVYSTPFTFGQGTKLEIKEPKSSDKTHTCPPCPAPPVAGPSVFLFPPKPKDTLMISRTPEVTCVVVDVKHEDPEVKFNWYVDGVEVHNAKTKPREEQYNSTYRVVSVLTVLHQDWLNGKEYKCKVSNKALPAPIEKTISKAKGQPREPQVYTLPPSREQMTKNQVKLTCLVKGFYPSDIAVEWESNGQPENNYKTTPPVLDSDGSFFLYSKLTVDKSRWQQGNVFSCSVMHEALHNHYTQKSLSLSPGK
light: EIVLTQSPGTLSLSPGERATLSCRVSSSIQSSNLHWYQQKPGQSPRPLIYGTSNLASGVPVRFSGSGSGTDYTLTISRLEPEDFAVYYCQQWSSYPLYTFGGGTKVEIKRTVAAPSVFIFPPSDEQLKSGTASVVCLLNNFYPREAKVQWKVDNALQSGNSQESVTEQDSKDSTYSLSSTLTLSKADYEKHKVYACEVTHQGLSSPVTKSFNRGEC
**Q.** For B7, which Kd (cynomolgus PDL1 antigen [1]) is on record?
**A.** Its Kd is 0.8 nM.

B8: XENP28428 (antibody, V domains shown)
VH: EVQLLESGGGLVQPGGSLRLSCAASGFTFSSYAMSWVRQAPGKGLEWVSTISGSGDSTYYADSVKGRFTISRDNSKNTLYLQMNSLRAEDTAVYYCAKSGPGLRQVGFDYWGQGTLVTVSS
VL: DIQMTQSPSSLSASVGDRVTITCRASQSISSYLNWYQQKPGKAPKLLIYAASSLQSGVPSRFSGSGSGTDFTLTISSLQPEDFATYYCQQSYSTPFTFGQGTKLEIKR
**Q.** With B8 as the binder, how does the Kd (human CD28 [8]) read?
**A.** Its Kd is 14.5 nM.
